In PMC4220304:

Biological target: L363 antibody (anti-CD1d-α-GalCer)
Assay: SPR

Q: How did the Kd turn out when “CD1d loaded with α-GalCer (from UniProt P11609 22-297; P01887 21-119) (complex)” was run?
A: 0.0967 µM

Q: What about the kon of the same substance?
A: 85700 M⁻¹ s⁻¹

Q: Which results are given for “CD1d loaded with C24:1 α-GalCer (from UniProt P11609 22-297; P01887 21-119) (complex)”?
A: Kd: 0.35 µM; kon: 142000 M⁻¹ s⁻¹

Q: Which results are given for “CD1d loaded with α-lyso-glucosylceramide (α-glucopsychosine) (from UniProt P11609 22-297; P01887 21-119) (complex)”?
A: Kd: 8.14 µM; koff: 0.115 s⁻¹; kon: 4590 M⁻¹ s⁻¹

Q: Which results are given for “CD1d loaded with α-GluCer (from UniProt P11609 22-297; P01887 21-119) (complex)”?
A: Kd: 5.02 µM; koff: 0.471 s⁻¹; kon: 93700 M⁻¹ s⁻¹

Q: What does the source list for “CD1d loaded with α-lyso-galactosylceramide (α-psychosine) (from UniProt P11609 22-297; P01887 21-119) (complex)”?
A: Kd: 2.23 µM; kon: 943000 M⁻¹ s⁻¹
